Laboratory results: paper PMC7591906, “pHLIP ICG for delineation of tumors and blood flow during fluorescence-guided surgery” (Scientific Reports, 2020)
Entries after “also recorded” stand apart in the source; their conditions may differ. Peptide text beside a SMILES is read from it. * marks the point of attachment. X1 = CC1(C)C(/C=C/C=C/C=C/C=C2/N(CCCCCC(=O)NCCN3C(=O)CC(*)C3=O)c3ccc4ccccc4c3C2(C)C)=[N+](CCCCS(=O)(=O)[O-])c2ccc3ccccc3c21

Legend:
[1] = test system: human mammary epithelial cells (HMEpC); experiment: Cytotoxicity, cell viability (CellTiter 96 AQueous One); assay type: cell-based; details: 0.125 up to 16 µM, 72 h, absorbance 490 nm, triplicate
Procedure: Human mammary epithelial cells (HMEpC) acquired from Cell Applications, Inc. were authenticated and stored according to supplier’s instructions. Cells were cultured in mammary epithelial cell growth medium provided by the manufacturer. HMEpC cells were loaded in the wells of 96-well plates (~6,000 cells per well) and incubated overnight. Increasing amounts of pHLIP ICG dissolved in cell growth medium were added to cells to give the following final concentrations of pHLIP ICG with cells: 0.125, 0.25, 0.5, 1, 2, 4, 8 and 16 μM. After 48 and 72 hours of incubation, a colorimetric reagent (CellTiter 96 AQueous One Solution Assay, Promega) was added for 2 hours followed by measuring absorbance at 490 nm to assess cell viability. All samples were prepared in triplicate and each experiment was repeated several times.

[2] = Imaging of blood vessels in mice; assay type: in vivo, athymic female nude mice; details: 2.5 nmol single tail vein injection, NIR imaging of leg and ear, five animals
Procedure: Single tail vein administrations of 2.5 nmol of ICG-Cys or pHLIP ICG in sterile PBS or PBS with 5% DMSO or 5% Ethanol (vol:vol) (volume of the injection was 100 μl) were given to athymic female nude mice (strain Hsd Athymic Nude-Foxn1nu) ranging in age from 5 to 6 weeks (obtained from Envigo RMS Inc). Mice were under gas anesthesia, and imaging of mouse leg and ear was performed immediately and at different time points (from 5 min till 120 min) after administration of ICG-Cys or pHLIP ICG using the Stryker 1558 AIM clinical imaging system with L10 AIM Light Source, 1588 AIM Camera and a 10 mm scope and a Novadaq imaging system. Five animals per construct were used in the study.

[3] = Local tolerance/irritancy in New Zealand white rabbits (GLP); assay type: in vivo; details: single 0.124 and 1.86 mg/kg, i.v., intra-arterial, perivenous and subcutaneous
Procedure: The objective of this GLP study performed at CRL was to compare the i.v., intra-arterial, perivascular and subcutaneous routes for potential irritation following a single injection of pHLIP ICG in the rabbits.
The following parameters and end points were evaluated in this study: clinical signs, local irritation assessment, body weights (for dose calculation only), and histopathology of the injection sites. There were no clinical signs, local irritation or any microscopic changes associated with pHLIP ICG during the study.

[4] = Pharmacological safety assessment on the central nervous system (FOB) in rats (GLP); assay type: in vivo, Sprague Dawley rats; details: single i.v. bolus 0.218, 0.248, 3.72 and 7.44 mg/kg, up to 24 h post-dose
Procedure: The objective of this GLP study performed at CRL was to evaluate the pharmacological effects of pHLIP ICG on the central nervous system following a single i.v. bolus injection in rats.
Functional observation battery (FOB) tests were performed once prior to dosing and again at 5 minutes, 3 and 24 hours post-dose and included the following assessments: palpebral closure, eye prominence, pupil size, pupillary response, lacrimation, salivation, body tone, extensor thrust, pinna reflex, tactile reflex, overall animal reactivity, auricular startle, air righting reflex, body temperature (rectal). Additional evaluations consisted of mortality and clinical observations.

[5] = cited from earlier work
Source text: Since pHLIP peptides offer a unique approach to the targeting of a spectrum of tumor subtypes, we were motivated to develop a fluorescent pHLIP candidate in order to improve the surgical resection of tumors guided by fluorescence. After testing a variety of fluorescent dyes with pHLIP peptides, we chose a widely used clinical fluorescent dye, indocyanine green (ICG). In addition to its long record of safety, ICG was chosen to couple to pHLIP peptide as a clinical imaging candidate for two main reasons: first, the fluorescence of pHLIP ICG is enhanced about 20 times when pHLIP tethers ICG t ...

CC(C)C[C@H](NC(=O)[C@H](Cc1ccc(O)cc1)NC(=O)[C@H](C)NC(=O)[C@H](CCCNC(=N)N)NC(=O)[C@H](Cc1c[nH]c2ccccc12)NC(=O)[C@@H]1CCCN1C(=O)[C@H](CC(N)=O)NC(=O)[C@H](CCC(N)=O)NC(=O)[C@H](CC(=O)O)NC(=O)[C@H](CC(=O)O)NC(=O)[C@H](CSC1CC(=O)N(CCNC(=O)CCCCCN2/C(=C/C=C/C=C/C=C/C3=[N+](CCCCS(=O)(=O)[O-])c4ccc5ccccc5c4C3(C)C)C(C)(C)c3c2ccc2ccccc32)C1=O)NC(=O)[C@H](C)N)C(=O)N[C@@H](CC(=O)O)C(=O)N[C@@H](CC(C)C)C(=O)N[C@@H](CC(C)C)C(=O)N[C@@H](Cc1ccccc1)C(=O)N1CCC[C@H]1C(=O)N[C@H](C(=O)N[C@@H](CC(=O)O)C(=O)N[C@H](C(=O)N[C@@H](CC(C)C)C(=O)N[C@@H](CC(C)C)C(=O)N[C@@H](CC(C)C)C(=O)N[C@@H](CC(=O)O)C(=O)N[C@@H](CC(C)C)C(=O)N[C@@H](CC(C)C)C(=O)N[C@@H](Cc1c[nH]c2ccccc12)C(=O)N[C@@H](C)C(=O)O)[C@@H](C)O)[C@@H](C)O (some centres unmarked) [pHLIP ICG] (H-AC(X1)DDQNPWRAYLDLLFPTDTLLLDLLWA-OH)
Cytotoxic effect (cell viability) [1]: did not show any cytotoxic effect at any tested concentration | Time for which blood vessels are clearly revealed [2]: up to 2 h | Local tolerance [3]: well tolerated; also recorded: well-tolerated and did not result in any pHLIP ICG-related changes | Effect on the central nervous system (FOB) [4]: had no observed effect on the central nervous system | Fluorescence enhancement when tethered to the membrane vs aqueous solution [5]: about 20 times
